From IntAct's records for PubMed 24744375

B1: Disease resistance protein RRS1 (Arabidopsis thaliana (Mouse-ear cress)), P0DKH5 (parent)
chain: MTNCEKDEEFVCISCVEEVRYSFVSHLSEALRRKGINNVVVDVDIDDLLFKESQAKIEKAGVSVMVLPGNCDPSEVWLDKFAKVLECQRNNKDQAVVSVLYGDSLLRDQWLSELDFRGLSRIHQSRKECSDSILVEEIVRDVYETHFYVGRIGIYSKLLEIENMVNKQPIGIRCVGIWGMPGIGKTTLAKAVFDQMSSAFDASCFIEDYDKSIHEKGLYCLLEEQLLPGNDATIMKLSSLRDRLNSKRVLVVLDDVRNALVGESFLEGFDWLGPGSLIIITSRDKQVFCLCGINQIYEVQGLNEKEARQLFLLSASIKEDMGEQNLQELSVRVINYANGNPLAISVYGRELKGKKKLSEMETAFLKLKRRPPFKIVDAFKSTYDTLSDNEKNIFLDIACFFQGENVNYVIQLLEGCGFFPHVEIDVLVDKCLVTISENRVWLHKLTQDIGREIINGETVQIERRRRLWEPWSIKYLLEYNEHKANGEPKTTFKRAQGSEEIEGLFLDTSNLRFDLQPSAFKNMLNLRLLKIYCSNPEVHPVINFPTGSLHSLPNELRLLHWENYPLKSLPQNFDPRHLVEINMPYSQLQKLWGGTKNLEMLRTIRLCHSHHLVDIDDLLKAENLEVIDLQGCTRLQNFPAAGRLLRLRVVNLSGCIKIKSVLEIPPNIEKLHLQGTGILALPVSTVKPNHRELVNFLTEIPGLSEELERLTSLLESNSSCQDLGKLICLELKDCSCLQSLPNMANLDLNVLDLSGCSSLNSIQGFPRFLKQLYLGGTAIREVPQLPQSLEILNAHGSCLRSLPNMANLEFLKVLDLSGCSELETIQGFPRNLKELYFAGTTLREVPQLPLSLEVLNAHGSDSEKLPMHYKFNNFFDLSQQVVNDFLLKTLTYVKHIPRGYTQELINKAPTFSFSAPSHTNQNATFDLQSGSSVMTRLNHSWRNTLVGFGMLVEVAFPEDYCDATDVGISCVCRWSNKEGRSCRIERKFHCWAPWQVVPKVRKDHTFVFSDVNMRPSTGEGNDPDIWAGLVVFEFFPINQQTKCLNDRFTVRRCGVRVINVATGNTSLENIALVLSLDPVEVSGYEVLRVSYDDLQEMDKVLFLYIASLFNDEDVDFVAPLIAGIDLDVSSGLKVLADVSLISVSSNGEIVMHSLQRQMGKEILHGQSMLLSDCESSMTENLSDVPKKKKKHSESRVKKVVSIPAIDEGDLWTWRKYGQKDILGSRFPRGYYRCAYKFTHGCKATKQVQRSETDSNMLAITYLSEHNHPRPTKRKALADSTRSTSSSIC
partner: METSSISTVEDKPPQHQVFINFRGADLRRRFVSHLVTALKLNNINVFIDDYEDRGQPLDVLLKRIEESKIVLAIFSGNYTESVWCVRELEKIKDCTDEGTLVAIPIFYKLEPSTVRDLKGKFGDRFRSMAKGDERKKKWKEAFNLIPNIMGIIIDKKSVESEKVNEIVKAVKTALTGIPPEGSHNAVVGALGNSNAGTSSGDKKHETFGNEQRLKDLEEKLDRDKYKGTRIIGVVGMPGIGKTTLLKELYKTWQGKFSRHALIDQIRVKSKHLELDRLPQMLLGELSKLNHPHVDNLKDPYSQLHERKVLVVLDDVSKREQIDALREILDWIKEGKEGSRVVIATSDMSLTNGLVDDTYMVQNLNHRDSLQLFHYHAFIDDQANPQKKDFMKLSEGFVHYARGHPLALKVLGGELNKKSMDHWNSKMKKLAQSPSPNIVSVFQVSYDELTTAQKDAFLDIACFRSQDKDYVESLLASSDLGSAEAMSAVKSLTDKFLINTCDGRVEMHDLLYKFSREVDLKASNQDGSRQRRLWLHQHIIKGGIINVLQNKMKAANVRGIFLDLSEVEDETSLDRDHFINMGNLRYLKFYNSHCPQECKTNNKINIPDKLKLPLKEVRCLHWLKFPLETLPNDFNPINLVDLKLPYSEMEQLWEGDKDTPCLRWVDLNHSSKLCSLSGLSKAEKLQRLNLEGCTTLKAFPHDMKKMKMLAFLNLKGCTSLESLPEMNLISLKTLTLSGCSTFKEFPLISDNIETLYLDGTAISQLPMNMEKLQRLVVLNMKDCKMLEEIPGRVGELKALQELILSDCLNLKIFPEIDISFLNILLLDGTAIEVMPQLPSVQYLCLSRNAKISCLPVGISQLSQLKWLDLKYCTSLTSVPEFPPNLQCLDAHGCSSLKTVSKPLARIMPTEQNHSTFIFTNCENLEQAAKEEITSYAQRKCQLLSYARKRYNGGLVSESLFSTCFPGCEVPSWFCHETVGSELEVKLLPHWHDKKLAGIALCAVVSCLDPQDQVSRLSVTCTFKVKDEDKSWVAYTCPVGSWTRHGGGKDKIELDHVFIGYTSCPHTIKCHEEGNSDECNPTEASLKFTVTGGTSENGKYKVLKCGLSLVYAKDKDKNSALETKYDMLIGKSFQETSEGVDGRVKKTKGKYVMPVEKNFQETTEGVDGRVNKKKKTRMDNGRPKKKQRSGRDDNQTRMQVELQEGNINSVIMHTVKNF
B2: Disease resistance protein RPS4 (Arabidopsis thaliana (Mouse-ear cress)), Q9XGM3 (parent)
chain: B1 partner
partner: B1 chain

Variants of: B1
Conditions: with rps4_arath RPS4, Q9XGM3

Variant	effect of a mutation on the interaction
H26A	disrupting interaction strength

Variants of: B1
Conditions: with rps4_arath RPS4, Q9XGM3
Remark: another data set of the same source

Variant	effect of a mutation on the interaction
R20A	disrupting interaction strength
S25A	disrupting interaction strength
S25A;H26A	disrupting interaction strength
Y101A	disrupting interaction strength
D103A	disrupting interaction strength
D103R	disrupting interaction strength
E128A	disrupting interaction strength
D131A	disrupting interaction strength

Variants of: B2
Conditions: with wrk52_arath RRS1, P0DKH5

Variant	effect of a mutation on the interaction
H34A	disrupting interaction strength

Variants of: B2
Conditions: with wrk52_arath RRS1, P0DKH5
Remark: another data set of the same source

Variant	effect of a mutation on the interaction
S33A;H34A	disrupting interaction strength
R29A	disrupting interaction strength
R30A	disrupting interaction strength
E160A	disrupting interaction strength
R30E	disrupting interaction strength
K157A	disrupting interaction strength
S33A	disrupting interaction strength
